Experimental data from publication PMC2872656.

Target: Pyrococcus abyssi PAB1135 protein (trypsin-treated) (Pyrococcus abyssi) (UniProt Q9UXX8)
Assay: SEC; trypsin-treated PAB1135 on Superdex 75 XK 16/60; 50 mM Tris-HCl pH 8.0, 150 mM NaCl, 0.5 mM EDTA; apparent mass against mass markers

- stoichiometry N: 2
Substance: Pyrococcus abyssi PAB1135 protein (trypsin-treated) (from UniProt Q9UXX8 1-154) (natural protein)
